Test results as given in patent US20140087995A1 (published 2014).
Numbered stars: 1 amine (or outer) side, 2 acyl side, 3 side chain; on linkers, the order of the positions; unused ones are H or OH. Bridge positions count the residues as written; N and C are the ends. Side chains are listed from the residue outwards. Ends that are not written are not given here. * marks the point of attachment. C20 diacid = O=C(O)CCCCCCCCCCCCCCCCCCC(=O)*; γGlu = O=C(O)[C@H](CCC(=O)[*:2])N[*:1]; AEEA = NCCOCCOCC(=O)O

T1: human calcitonin receptor (human, UniProt P30988 25-474)
T1 construct: whole, on cells; Used as cell membranes; also called hCTR; hCT
T1 sequence (looked up): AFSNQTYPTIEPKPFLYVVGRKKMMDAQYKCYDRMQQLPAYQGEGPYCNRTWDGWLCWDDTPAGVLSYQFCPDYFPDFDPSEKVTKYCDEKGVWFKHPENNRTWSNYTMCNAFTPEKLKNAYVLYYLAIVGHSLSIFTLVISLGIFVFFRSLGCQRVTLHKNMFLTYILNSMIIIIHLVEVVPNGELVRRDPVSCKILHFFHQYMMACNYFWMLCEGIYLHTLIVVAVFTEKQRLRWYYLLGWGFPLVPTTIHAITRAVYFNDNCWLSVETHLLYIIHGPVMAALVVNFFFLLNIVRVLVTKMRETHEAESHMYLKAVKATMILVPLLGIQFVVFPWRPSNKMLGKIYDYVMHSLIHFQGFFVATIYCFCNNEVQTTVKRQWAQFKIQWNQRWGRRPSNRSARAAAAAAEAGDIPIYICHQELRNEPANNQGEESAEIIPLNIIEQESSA

B1: N^ε1-[(4S)-4-carboxy-4-(19-carboxynonadecanoylamino)butanoyl]-[Arg17,Pro21,Pro27,His34]-h-amylin (peptide)
peptide: K([γGlu-C20 diacid])CNTATCATQRLANFLRHSSPNFGAIPSSTNVGHNTY-NH2
modifications: disulfide 2-7; N-terminus assumed
SMILES: CC[C@H](C)[C@H](NC(=O)[C@H](C)NC(=O)CNC(=O)[C@H](Cc1ccccc1)NC(=O)[C@H](CC(N)=O)NC(=O)[C@@H]1CCCN1C(=O)[C@H](CO)NC(=O)[C@H](CO)NC(=O)[C@H](Cc1c[nH]cn1)NC(=O)[C@H](CCCNC(=N)N)NC(=O)[C@H](CC(C)C)NC(=O)[C@H](Cc1ccccc1)NC(=O)[C@H](CC(N)=O)NC(=O)[C@H](C)NC(=O)[C@H](CC(C)C)NC(=O)[C@H](CCCNC(=N)N)NC(=O)[C@H](CCC(N)=O)NC(=O)[C@@H](NC(=O)[C@H](C)NC(=O)[C@@H]1CSSC[C@H](NC(=O)[C@@H](N)CCCCNC(=O)CC[C@H](NC(=O)CCCCCCCCCCCCCCCCCCC(=O)O)C(=O)O)C(=O)N[C@@H](CC(N)=O)C(=O)N[C@@H]([C@@H](C)O)C(=O)N[C@@H](C)C(=O)N[C@@H]([C@@H](C)O)C(=O)N1)[C@@H](C)O)C(=O)N1CCC[C@H]1C(=O)N[C@@H](CO)C(=O)N[C@@H](CO)C(=O)N[C@H](C(=O)N[C@@H](CC(N)=O)C(=O)N[C@H](C(=O)NCC(=O)N[C@@H](Cc1c[nH]cn1)C(=O)N[C@@H](CC(N)=O)C(=O)N[C@H](C(=O)N[C@@H](Cc1ccc(O)cc1)C(N)=O)[C@@H](C)O)C(C)C)[C@@H](C)O
notes: also called compound 77
B2: N^ε1-[2-[2-[2-(19-carboxynonadecanoylamino)ethoxy]ethoxy]acetyl]-[Arg17,Pro21,Pro27,His34]-h-amylin (peptide)
peptide: K([AEEA-C20 diacid])CNTATCATQRLANFLRHSSPNFGAIPSSTNVGHNTY-NH2
modifications: disulfide 2-7; N-terminus assumed
SMILES: CC[C@H](C)[C@H](NC(=O)[C@H](C)NC(=O)CNC(=O)[C@H](Cc1ccccc1)NC(=O)[C@H](CC(N)=O)NC(=O)[C@@H]1CCCN1C(=O)[C@H](CO)NC(=O)[C@H](CO)NC(=O)[C@H](Cc1c[nH]cn1)NC(=O)[C@H](CCCNC(=N)N)NC(=O)[C@H](CC(C)C)NC(=O)[C@H](Cc1ccccc1)NC(=O)[C@H](CC(N)=O)NC(=O)[C@H](C)NC(=O)[C@H](CC(C)C)NC(=O)[C@H](CCCNC(=N)N)NC(=O)[C@H](CCC(N)=O)NC(=O)[C@@H](NC(=O)[C@H](C)NC(=O)[C@@H]1CSSC[C@H](NC(=O)[C@@H](N)CCCCNC(=O)COCCOCCNC(=O)CCCCCCCCCCCCCCCCCCC(=O)O)C(=O)N[C@@H](CC(N)=O)C(=O)N[C@@H]([C@@H](C)O)C(=O)N[C@@H](C)C(=O)N[C@@H]([C@@H](C)O)C(=O)N1)[C@@H](C)O)C(=O)N1CCC[C@H]1C(=O)N[C@@H](CO)C(=O)N[C@@H](CO)C(=O)N[C@H](C(=O)N[C@@H](CC(N)=O)C(=O)N[C@H](C(=O)NCC(=O)N[C@@H](Cc1c[nH]cn1)C(=O)N[C@@H](CC(N)=O)C(=O)N[C@H](C(=O)N[C@@H](Cc1ccc(O)cc1)C(N)=O)[C@@H](C)O)C(C)C)[C@@H](C)O
notes: also called compound 91
B3: N^ε1-[2-[2-[2-[[2-[2-[2-[[(4S)-4-carboxy-4-(19-carboxynonadecanoylamino)butanoyl]amino]ethoxy]ethoxy]acetyl]amino]ethoxy]ethoxy]acetyl]-[Arg17,Pro21,Pro27,His34 … (peptide)
peptide: K([AEEA-AEEA-γGlu-C20 diacid])CNTATCATQRLANFLRHSSPNFGAIPSSTNVGHNTY-NH2
modifications: disulfide 2-7; N-terminus assumed
SMILES: CC[C@H](C)[C@H](NC(=O)[C@H](C)NC(=O)CNC(=O)[C@H](Cc1ccccc1)NC(=O)[C@H](CC(N)=O)NC(=O)[C@@H]1CCCN1C(=O)[C@H](CO)NC(=O)[C@H](CO)NC(=O)[C@H](Cc1c[nH]cn1)NC(=O)[C@H](CCCNC(=N)N)NC(=O)[C@H](CC(C)C)NC(=O)[C@H](Cc1ccccc1)NC(=O)[C@H](CC(N)=O)NC(=O)[C@H](C)NC(=O)[C@H](CC(C)C)NC(=O)[C@H](CCCNC(=N)N)NC(=O)[C@H](CCC(N)=O)NC(=O)[C@@H](NC(=O)[C@H](C)NC(=O)[C@@H]1CSSC[C@H](NC(=O)[C@@H](N)CCCCNC(=O)COCCOCCNC(=O)COCCOCCNC(=O)CC[C@H](NC(=O)CCCCCCCCCCCCCCCCCCC(=O)O)C(=O)O)C(=O)N[C@@H](CC(N)=O)C(=O)N[C@@H]([C@@H](C)O)C(=O)N[C@@H](C)C(=O)N[C@@H]([C@@H](C)O)C(=O)N1)[C@@H](C)O)C(=O)N1CCC[C@H]1C(=O)N[C@@H](CO)C(=O)N[C@@H](CO)C(=O)N[C@H](C(=O)N[C@@H](CC(N)=O)C(=O)N[C@H](C(=O)NCC(=O)N[C@@H](Cc1c[nH]cn1)C(=O)N[C@@H](CC(N)=O)C(=O)N[C@H](C(=O)N[C@@H](Cc1ccc(O)cc1)C(N)=O)[C@@H](C)O)C(C)C)[C@@H](C)O
notes: also called compound 97
B4: N^-1-[(4S)-4-carboxy-4-(19-carboxynonadecanoylamino)butanoyl]-Gly[Arg1,Ala14,Arg17,Pro21,Pro27,His34]-h-amylin (peptide)
peptide: {C20 diacid-γGlu}-GRCNTATCATQRLAAFLRHSSPNFGAIPSSTNVGHNTY-NH2
modifications: disulfide 3-8
SMILES: CC[C@H](C)[C@H](NC(=O)[C@H](C)NC(=O)CNC(=O)[C@H](Cc1ccccc1)NC(=O)[C@H](CC(N)=O)NC(=O)[C@@H]1CCCN1C(=O)[C@H](CO)NC(=O)[C@H](CO)NC(=O)[C@H](Cc1c[nH]cn1)NC(=O)[C@H](CCCNC(=N)N)NC(=O)[C@H](CC(C)C)NC(=O)[C@H](Cc1ccccc1)NC(=O)[C@H](C)NC(=O)[C@H](C)NC(=O)[C@H](CC(C)C)NC(=O)[C@H](CCCNC(=N)N)NC(=O)[C@H](CCC(N)=O)NC(=O)[C@@H](NC(=O)[C@H](C)NC(=O)[C@@H]1CSSC[C@H](NC(=O)[C@H](CCCNC(=N)N)NC(=O)CNC(=O)CC[C@H](NC(=O)CCCCCCCCCCCCCCCCCCC(=O)O)C(=O)O)C(=O)N[C@@H](CC(N)=O)C(=O)N[C@@H]([C@@H](C)O)C(=O)N[C@@H](C)C(=O)N[C@@H]([C@@H](C)O)C(=O)N1)[C@@H](C)O)C(=O)N1CCC[C@H]1C(=O)N[C@@H](CO)C(=O)N[C@@H](CO)C(=O)N[C@H](C(=O)N[C@@H](CC(N)=O)C(=O)N[C@H](C(=O)NCC(=O)N[C@@H](Cc1c[nH]cn1)C(=O)N[C@@H](CC(N)=O)C(=O)N[C@H](C(=O)N[C@@H](Cc1ccc(O)cc1)C(N)=O)[C@@H](C)O)C(C)C)[C@@H](C)O
notes: 38 residues
B5: N^-1-[(4S)-4-carboxy-4-(19-carboxynonadecanoylamino)butanoyl]-Gly[Arg1,His14,Arg17,Pro21,Pro27,Pro34]-h-amylin (peptide)
peptide: {C20 diacid-γGlu}-GRCNTATCATQRLAHFLRHSSPNFGAIPSSTNVGPNTY-NH2
modifications: disulfide 3-8
SMILES: CC[C@H](C)[C@H](NC(=O)[C@H](C)NC(=O)CNC(=O)[C@H](Cc1ccccc1)NC(=O)[C@H](CC(N)=O)NC(=O)[C@@H]1CCCN1C(=O)[C@H](CO)NC(=O)[C@H](CO)NC(=O)[C@H](Cc1c[nH]cn1)NC(=O)[C@H](CCCNC(=N)N)NC(=O)[C@H](CC(C)C)NC(=O)[C@H](Cc1ccccc1)NC(=O)[C@H](Cc1c[nH]cn1)NC(=O)[C@H](C)NC(=O)[C@H](CC(C)C)NC(=O)[C@H](CCCNC(=N)N)NC(=O)[C@H](CCC(N)=O)NC(=O)[C@@H](NC(=O)[C@H](C)NC(=O)[C@@H]1CSSC[C@H](NC(=O)[C@H](CCCNC(=N)N)NC(=O)CNC(=O)CC[C@H](NC(=O)CCCCCCCCCCCCCCCCCCC(=O)O)C(=O)O)C(=O)N[C@@H](CC(N)=O)C(=O)N[C@@H]([C@@H](C)O)C(=O)N[C@@H](C)C(=O)N[C@@H]([C@@H](C)O)C(=O)N1)[C@@H](C)O)C(=O)N1CCC[C@H]1C(=O)N[C@@H](CO)C(=O)N[C@@H](CO)C(=O)N[C@H](C(=O)N[C@@H](CC(N)=O)C(=O)N[C@H](C(=O)NCC(=O)N1CCC[C@H]1C(=O)N[C@@H](CC(N)=O)C(=O)N[C@H](C(=O)N[C@@H](Cc1ccc(O)cc1)C(N)=O)[C@@H](C)O)C(C)C)[C@@H](C)O
notes: 38 residues
B6: N{-1}-[(4S)-4-carboxy-4-(19-carboxynonadecanoylamino)butanoyl]-Gly[Arg1,His14,Arg17,Pro21,Pro27]-h-amylin (peptide)
peptide: {C20 diacid-γGlu}-GRCNTATCATQRLAHFLRHSSPNFGAIPSSTNVGSNTY-NH2
modifications: disulfide 3-8
SMILES: CC[C@H](C)[C@H](NC(=O)[C@H](C)NC(=O)CNC(=O)[C@H](Cc1ccccc1)NC(=O)[C@H](CC(N)=O)NC(=O)[C@@H]1CCCN1C(=O)[C@H](CO)NC(=O)[C@H](CO)NC(=O)[C@H](Cc1c[nH]cn1)NC(=O)[C@H](CCCNC(=N)N)NC(=O)[C@H](CC(C)C)NC(=O)[C@H](Cc1ccccc1)NC(=O)[C@H](Cc1c[nH]cn1)NC(=O)[C@H](C)NC(=O)[C@H](CC(C)C)NC(=O)[C@H](CCCNC(=N)N)NC(=O)[C@H](CCC(N)=O)NC(=O)[C@@H](NC(=O)[C@H](C)NC(=O)[C@@H]1CSSC[C@H](NC(=O)[C@H](CCCNC(=N)N)NC(=O)CNC(=O)CC[C@H](NC(=O)CCCCCCCCCCCCCCCCCCC(=O)O)C(=O)O)C(=O)N[C@@H](CC(N)=O)C(=O)N[C@@H]([C@@H](C)O)C(=O)N[C@@H](C)C(=O)N[C@@H]([C@@H](C)O)C(=O)N1)[C@@H](C)O)C(=O)N1CCC[C@H]1C(=O)N[C@@H](CO)C(=O)N[C@@H](CO)C(=O)N[C@H](C(=O)N[C@@H](CC(N)=O)C(=O)N[C@H](C(=O)NCC(=O)N[C@@H](CO)C(=O)N[C@@H](CC(N)=O)C(=O)N[C@H](C(=O)N[C@@H](Cc1ccc(O)cc1)C(N)=O)[C@@H](C)O)C(C)C)[C@@H](C)O
notes: 38 residues; also called compound 99

These binders were tested against T1, human calcitonin receptor (assay: ratio of hCTR IC50 to hAmylin-R IC50 (reference: human amylin receptor)).
Outline: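 IC₅₀ values were derived by one-site competition analysis of SPA counts. Cell membranes (35 ng/μL) with SPA beads were incubated with test compounds for 120 min at 25° C in Hepes buffer, pH 7.4, containing CaCl2, MgCl₂, OA and Tween20.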
B1 was tested, and the “Ratio hCT/hAmylin binding” value was 118. With B2 the “Ratio hCT/hAmylin binding” value was 101. With B3 the “Ratio hCT/hAmylin binding” value was 104. With B4 the “Ratio hCT/hAmylin binding” value was 68.6. {C20 diacid-γGlu}-GRCNTATCATQRLAAFLRHSSPNFGAIPSSTNVGPNTY-NH2 (disulfide 3-8, 38 residues) was tested, and the “Ratio hCT/hAmylin binding” value was 26.5. With B5 the “Ratio hCT/hAmylin binding” value was 36.2. B6 was tested, and the “Ratio hCT/hAmylin binding” value was 100.

These binders were tested against T1, human calcitonin receptor (assay: SPA competition on BHK cell membranes, 125I-calcitonin as radioligand (Assay VII)).
Outline: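 BHK hCTR membranes 35 ng/μL + SPA beads 0.05 mg/well; buffer 50 mM Hepes pH 7.4, 1 mM CaCl2, 5 mM MgCl₂, 0.1% OA, 0.02% Tween20. 120 min, 25° C., shaking. Scintillation count; IC50 by one-site binding competition.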
B1 gave an IC50 of 50.7 nM. In the case of B2, the IC50 is reported as 12 nM. With B3 the IC50 was 58.9 nM. Binder B4 has an IC50 of 29.2 nM. Work on {C20 diacid-γGlu}-GRCNTATCATQRLAAFLRHSSPNFGAIPSSTNVGPNTY-NH2 (disulfide 3-8, 38 residues) yielded an IC50 of 3 nM. B5 was tested, and the IC50 was 7.87 nM. B6 was tested, and the IC50 was 35 nM.
